Laboratory results: patent US20200384118A1, “IMMUNOTOXIN CONJUGATES FOR USE IN THERAPY” (FRIEDRICH-ALEXANDER-UNIVERSITAT ERLANGEN-NURNBERG, priority 2017, published 2020)

How the values were obtained:
many cell lines [1] = assay: molar activity in vitro against many cell lines (FIG. 3B); type: cell-based; settings: on average, PV from published activity
Method: FIG. 3: Activity of Duotoxins in vitro.
LMIT-2-DM1 was tested against various cell lines (FIG. 3A). […] Cells like DOHH-2 that are resistant to immunotoxins were sensitive to the LMIT-2-DM1. We have not found a cell line which is resistant to both, the PE and the DM1 in vitro. […] On average 3.6 DM1 molecules per LMIT-3 molecule were coupled. […] The activity of PV varies substantially over a 3-log concentration range. […] The activity is tested by plating the above described cell lines at 20,000 cells per well in a 96-well plate. The immunotoxin or duotoxin is added at indicated concentrations in a three-fold serial dilution, the cells incubated in a humidified incubator for 72 hours. The cells are then collected by centrifugation, stained with 7-AAD and Annexin V and cell death determined by flow cytometry. The concentration at which 50% of the cells are killed (IC50) reflects the activity of a drug against a cell and is determined from the flow cytometry data by non-linear regression analysis.

many cell lines [2] = settings: published activity of PV; cited from earlier work
[3] = cytotoxicity of immunotoxins and blocking of LMIT-2 by LMIT-3 (FIG. 2B); type: cell-based

Row | Molecule | activity relative to LMIT-2 (less active) (many cell lines [1]) | variation of activity over concentration range (many cell lines [2]) | activity of LMIT-2 compared with Moxe [3]
1 | PV: CD22-targeting IgG-based ADC, antibody conjugated with MMAE (conjugate, chains of the INN, looked up, vedotin (MMAE) payload) VH: EVQLVESGGGLVQPGGSLRLSCAASGYEFSRSWMNWVRQAPGKGLEWVGRIYPGDGDTNYSGKFKGRFTISADTSKNTAYLQMNSLRAEDTAVYYCARDGSSWDWYFDVWGQGTLVTVSS VL: DIQMTQSPSSLSASVGDRVTITCRSSQSIVHSVGNTFLEWYQQKPGKAPKLLIYKVSNRFSGVPSRFSGSGSGTDFTLTISSLQPEDFATYYCFQGSQFPYTFGQGTKVEIK | 3 logs | 3 log | –
2 | Moxe: reference immunotoxin compared with LMIT-2 in FIG. 2B; not further defined in the text (antibody, chains of the INN, looked up, V domains shown, pasudotox (PE38 toxin fusion), not further defined in the text) VH: EVQLVESGGGLVKPGGSLKLSCAASGFAFSIYDMSWVRQTPEKCLEWVAYISSGGGTTYYPDTVKGRFTISRDNAKNTLYLQMSSLKSEDTAMYYCARHSGYGTHWGVLFAYWGQGTLVTVSA VL: DIQMTQTTSSLSASLGDRVTISCRASQDISNYLNWYQQKPDGTVKLLIYYTSILHSGVPSRFSGSGSGTDYSLTISNLEQEDFATYFCQQGNTLPWTFGCGTKLEI | – | – | comparable activity
